From patent publication KR20220012792A (dated 2022)
Like-named read-outs stand apart in the source and are kept apart here.

Legend:
Assay in all cases: cell-based or functional assay
[1] = target: T1, S 단백질 of SARS-CoV-2 hCoV-19/South Korea/KUMC17/2020 (614G) (SARS-CoV-2)
[2] = target: T1, S 단백질 of SARS-CoV-2 hCoV-19/South …; remark: listed apart in the source
[3] = target: T1, S 단백질 of SARS-CoV-2 hCoV-19/South …; remark: listed apart in the source
[4] = target: S 단백질 of SARS-CoV-2 hCoV-19/South Korea/KCDC9481/2020 (614G, G형) (SARS-CoV-2)
[5] = target: T2, S 단백질 of SARS-CoV-2 hCoV-19/Korea/KCDC10847/2020 (GH형) (SARS-CoV-2)
[6] = target: T1, S 단백질 of SARS-CoV-2 hCoV-19/South …; remark: listed apart in the source
[7] = target: T2, S 단백질 of SARS-CoV-2 …; remark: listed apart in the source
[8] = target: S 단백질 of SARS-CoV-2 영국변이바이러스주 hCoV-19/South Korea/KDCA0838/2020 (SARS-CoV-2)

B1: No. 139 항체 (Full IgG) (antibody, V domains shown)
VH: QITLKESGPTLVKPTQTLTLTCSFSGFSLSTSGVGVGWIRQPPGKALEWLALIDWDDNKYHTTSLKTRLTISKDTSKNQVVLTMTNMDPVDTATYYCARIPGFLRYRNRYYYYGMDVWGQGTTVTVSS
VL: ELVLTQPPSVSAAPGQKVTISCSGSSSNIGNNYVSWYQQLPGTAPKLLIYDNNKRPSGIPDRFSGSKSGTSATLGITGLQTGDEADYYCGTWDSSLSAGVFGGGTELTVL
Q: How did the “IC50, PRNT” value [1] turn out when B1 was run?
A: 5.73 ng/mL

Q: And the “IC50 (ng/ml), PRNT” value [2]?
A: 3.37 ng/mL

Q: What about the “IC50 (ng/ml), PRNT” value [3] of the same binder?
A: 5.77 ng/mL

Q: And the “IC50 (ng/ml), PRNT” value [4]?
A: 10.6 ng/mL

Q: What about the “IC50 (ng/ml), PRNT” value [5] of the same binder?
A: 10.4 ng/mL

Q: And the “IC50 (ng/ml), PRNT” value [6]?
A: 4.22 ng/mL

Q: What about the “IC50 (ng/ml), PRNT” value [7] of the same binder?
A: 9.31 ng/mL

Q: And the “IC50 (ng/ml), PRNT” value [8]?
A: 9.62 ng/mL
